Laboratory results: FireProtDB (doi:10.1021/acs.biochem.7b00833)
Several values for one entry are separate records, joined by “and”; a condition that tells them apart may be missing. Equal entries are not always repeated.

B1: SCO1 protein homolog, P54178 (parent)
chain: MKVIKGLTAGLIFLFLCACGGQQIKDPLNYEVEPFTFQNQDGKNVSLESLKGEVWLADFIFTNCETICPPMTAHMTDLQKKLKAENIDVRIISFSVDPENDKPKQLKKFAANYPLSFDNWDFLTGYSQSEIEEFALKSFKAIVKKPEGEDQVIHQSSFYLVGPDGKVLKDYNGVENTPYDDIISDVKSASTLK

Variants of: B1
Conditions: Bacillus subtilis (strain 168), pH 7, CD, Sodium Phosphate Buffer, structure 1XZO, whole UniProt chain shown; for ddG of mutation (higher = less stable) / denaturant m value / denaturant midpoint (higher = more stable) / unfolding free energy: 25 °C, Urea

Variant | ddG of mutation (higher = less stable) | denaturant m value | denaturant midpoint (higher = more stable) | unfolding free energy | Tm (Thermal) | change of melting temperature, mutant - wild type (higher = more stable) (Thermal)
MKVIKGLTAGLIFLFLCACGGQQIKDPLNYEVEPFTFQNQDGKNVSLESLKGEVWLADFIFTNCETICPPMTAHMTDLQKKLKAENIDVRIISFSVDPENDKPKQLKKFAANYPLSFDNFDFLTGYSQSEIEEFALKSFKAIVKKPEGEDQVIHQSSFYLVGPDGKVLKDYNGVENTPYDDIISDVKSASTLK [W120F] | 2.89 kcal/mol | 3.93 kcal/mol/M | 1.77 M | 7.04 kcal/mol | 43.5 °C | –
MKVIKGLTAGLIFLFLCACGGQQIKDPLNYEVEPFTFQNQDGKNVSLESLKGEVWLADFIWTNCETICPPMTAHMTDLQKKLKAENIDVRIISFSVDPENDKPKQLKKFAANYPLSFDNWDFLTGYSQSEIEEFALKSFKAIVKKPEGEDQVIHQSSFYLVGPDGKVLKDYNGVENTPYDDIISDVKSASTLK [F61W] | -2.87 kcal/mol | 4.24 kcal/mol/M | – | 12.8 kcal/mol | – | 4.3 °C and -0.6 °C
MKVIKGLTAGLIFLFLCACGGQQIKDPLNYEVEPFTFQNQDGKNVSLESLKGEVALADFIFTNCETICPPMTAHMTDLQKKLKAENIDVRIISFSVDPENDKPKQLKKFAANYPLSFDNWDFLTGYSQSEIEEFALKSFKAIVKKPEGEDQVIHQSSFYLVGPDGKVLKDYNGVENTPYDDIISDVKSASTLK [W55A] | 8.93 kcal/mol | 1.92 kcal/mol/M | 0.75 M | 1 kcal/mol | – | –
MKVIKGLTAGLIFLFLCACGGQQIKDPLNYEVEPFTFQNQDGKNVSLESLKGEVWLADFIWTNCETICPPMTAHMTDLQKKLKAENIDVRIISFSVDPENDKPKQLKKFAANYPLSFDNFDFLTGYSQSEIEEFALKSFKAIVKKPEGEDQVIHQSSFYLVGPDGKVLKDYNGVENTPYDDIISDVKSASTLK [W120F F61W] | 4.18 kcal/mol | 3.17 kcal/mol/M | 1.81 M | 5.75 kcal/mol | – | -7.1 °C and -11.5 °C
MKVIKGLTAGLIFLFLCACGGQQIKDPLNYEVEPFTFQNQDGKNVSLESLKGEVFLADFIWTNCETICPPMTAHMTDLQKKLKAENIDVRIISFSVDPENDKPKQLKKFAANYPLSFDNWDFLTGYSQSEIEEFALKSFKAIVKKPEGEDQVIHQSSFYLVGPDGKVLKDYNGVENTPYDDIISDVKSASTLK [W55F F61W] | 4.14 kcal/mol | 3.37 kcal/mol/M | 1.72 M | 5.79 kcal/mol | – | -6.2 °C and -9.1 °C
MKVIKGLTAGLIFLFLCACGGQQIKDPLNYEVEPFTFQNQDGKNVSLESLKGEVALADFIWTNCETICPPMTAHMTDLQKKLKAENIDVRIISFSVDPENDKPKQLKKFAANYPLSFDNADFLTGYSQSEIEEFALKSFKAIVKKPEGEDQVIHQSSFYLVGPDGKVLKDYNGVENTPYDDIISDVKSASTLK [W55A W120A F61W] | – | – | – | – | – | -18 °C and -15.7 °C
MKVIKGLTAGLIFLFLCACGGQQIKDPLNYEVEPFTFQNQDGKNVSLESLKGEVALADFIWTNCETICPPMTAHMTDLQKKLKAENIDVRIISFSVDPENDKPKQLKKFAANYPLSFDNWDFLTGYSQSEIEEFALKSFKAIVKKPEGEDQVIHQSSFYLVGPDGKVLKDYNGVENTPYDDIISDVKSASTLK [W55A F61W] | 8.03 kcal/mol | 3.74 kcal/mol/M | 0.8 M | 1.9 kcal/mol | – | –
